What is called IC50 is the midpoint of a concentration-inhibition curve. Low readings indicate greater potency, high ones weaker potency.

Where two headings read alike, the source gives them in different places.

Assay [1] addresses human B7.1 antigen (CD80), membrane associated (human) (UniProt P33681). Kind of assay: competition on B7.1 transfected CHO cells; competitor pair BB-1 and L307.4 (FIG. 8).
Assay [2] addresses T1, human B7.1 antigen (CD80), membrane associated (human, UniProt P33681 35-288).
T1 sequence (looked up): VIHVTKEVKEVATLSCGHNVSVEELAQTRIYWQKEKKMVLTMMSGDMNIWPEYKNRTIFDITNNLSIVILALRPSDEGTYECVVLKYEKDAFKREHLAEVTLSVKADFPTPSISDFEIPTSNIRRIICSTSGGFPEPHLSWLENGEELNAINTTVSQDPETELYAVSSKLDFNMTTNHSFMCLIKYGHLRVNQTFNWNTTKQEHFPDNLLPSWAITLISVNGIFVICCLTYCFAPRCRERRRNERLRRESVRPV
The assay can be described thus: cell-based or functional assay.

Assay [3] deals with T2, B7.1/Ig fusion protein (human, UniProt P33681 35-242, limits assumed).
T2 construct: Secreted from CHO cells; also called B7-Ig; B7Ig; not shown: human immunoglobulin CH2 and CH3
T2 sequence (looked up): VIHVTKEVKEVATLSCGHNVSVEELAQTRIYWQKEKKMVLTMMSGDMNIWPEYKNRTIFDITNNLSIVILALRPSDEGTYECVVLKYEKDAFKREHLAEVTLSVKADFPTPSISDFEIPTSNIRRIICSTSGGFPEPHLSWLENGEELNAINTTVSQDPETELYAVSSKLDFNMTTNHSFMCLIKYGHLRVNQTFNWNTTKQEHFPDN
Kind of assay: Scatchard analysis, binding to B7-Ig coated plates (apparent Kd).

In assay [4] the target is T2, B7.1/Ig fusion protein. The description is as above. The source holds these as a separate data set.
The target of assay [5] is T3, B7 antigen (CD80) as used in surface plasmon resonance (UniProt P33681 35-242, limits assumed).
T3 sequence (looked up): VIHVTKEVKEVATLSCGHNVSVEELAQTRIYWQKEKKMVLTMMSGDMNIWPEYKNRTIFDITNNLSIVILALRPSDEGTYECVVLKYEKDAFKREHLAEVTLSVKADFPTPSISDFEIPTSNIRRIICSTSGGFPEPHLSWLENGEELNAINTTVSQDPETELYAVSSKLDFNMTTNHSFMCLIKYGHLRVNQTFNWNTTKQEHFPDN
The assay can be described thus: surface plasmon resonance. Background: SPR reads the build-up and loss of mass on a sensor chip optically.

The target in assay [6] is T2, B7.1/Ig fusion protein. The assay can be described thus: competition of 125I-B7.1Ig binding to CD28 positive peripheral blood T lymphocytes (FIG. 10).
The target in assay [7] is T2, B7.1/Ig fusion protein. Kind of assay: cell-based or functional assay.

As for BB-1 murine anti-B7 antibody, the cross-reactivity (competition) in assay [1] was found to be 50%.

B1: monkey monoclonal antibody 7B6 (antibody, V domains shown)
VH: EVQLVESGGGLVQPGGSLRVSCAVSGFTFSDHYMYWFRQAPGKGPEWVGFIRNKPNGGTTEYAASVKDRFTISRDDSKSIAYLQMSSLKIEDTAVYYCTTSYISHCRGGVCYGGYFEFWGQGALVTVSS
VL: EVVMTQSPLSLPITPGEPASISCRSSQSLKHSNGDTFLSWYQQKPGQPPRLLIYKVSNRDSGVPDRFSGSGAGTDFTLKISAVEAEDVGVYFCGQGTRTPPTFGGGTKVEIK
notes: Cynomolgus monkey antibody from a heterohybridoma; also called hybridoma ATCC HB-12120
As for B1, the “inhibition of IL-2 production in mixed lymphocyte reaction” value (shortened to “inhibition of IL-2 production”) in assay [2] worked out at 5 µg/mL. The Kd with B7.1/Ig fusion protein [3] and in the assay with B7.1/Ig fusion protein [4] was ~10.7 nM each time.

B2: monkey monoclonal antibody 7C10 (antibody, V domains shown)
VH: QVKLQQWGEGLLQPSETLSRTCVVSGGSISGYYYWTWIRQTPGRGLEWIGHIYGNGATTNYNPSLKSRVTISKDTSKNQFFLNLNSVTDADTAVYYCARGPRPDCTTICYGGWVDVWGPGDLVTVSS
VL: AYELTQPPSVSVSPGQTARITCGGDNSRNEYVHWYQQKPARAPILVIYDDSDRPSGIPERFSGSKSGNTATLTINGVEAGDEADYYCQVWDRASDHPVFGGGTRVTVL
notes: Cynomolgus monkey antibody from a heterohybridoma; The claims (CLM-00020) say that the amino acid entries are the even numbers of each pair; also called 7C10 monkey Ig; hybridoma ATCC HB-12117
In the case of B2, the “inhibition of IL-2 production” value in assay [2] amounted to 5 µg/mL. Further, the Kd in the assay with B7.1/Ig fusion protein [3] and with B7.1/Ig fusion protein [4] was ~6.2 nM in each case.

B3: PRIMATIZED 16C10 (antibody, V domains shown)
VH: QVQLQESGPGLVKPSETLSLTCAVSGGSISGGYGWGWIRQPPGKGLEWIGSFYSSSGNTYYNPSLKSQVTISTDTSKNQFSLKLNSMTAADTAVYYCVRDRLFSVVGMVYNNWFDVWGPGVLVTVSS
VL: ESALTQPPSVSGAPGQKVTISCTGSTSNIGGYDLHWYQQLPGTAPKLLIYDINKRPSGISDRFSGSKSGTAASLAITGLQTEDEADYYCQSYDSSLNAQVFGGGTRLTVLG
notes: Monkey variable domains with human constant regions, made in CHO cells; Biotinylated in some assays; also called P16C10; copies: 2 + 2
Take B3: in assay [5], the Kd came out at 4 nM. Further, the IC50 with B7.1/Ig fusion protein [6] was < 1 µg/mL. The “concentration for equivalent blocking of IL-2 production against CTLA-4Ig, anti-CD3/B7 beads (8:1)” value with B7.1/Ig fusion protein [7] is ~10 fold.

B4: monkey monoclonal antibody 16C10 (antibody, V domains shown)
VH: QVQLQESGPGLVKPSETLSLTCAVSGGSISGGYGWGWIRQPPGKGLEWIGSFYSSSGNTYYNPSLKSQVTISTDTSKNQFSLKLNSMTAADTAVYYCVRDRLFSVVGMVYNNWFDVWGPGVLVTVSS
VL: ESALTQPPSVSGAPGQKVTISCTGSTSNIGGYDLHWYQQLPGTAPKLLIYDINKRPSGISDRFSGSKSGTAASLAITGLQTEDEADYYCQSYDSSLNAQVFGGGTRLTVL
notes: Cynomolgus monkey antibody from a heterohybridoma; also called hybridoma ATCC HB-12119
B4: the “inhibition of IL-2 production” value in assay [2] was determined as 0.1 µg/mL. Moreover, the Kd with B7.1/Ig fusion protein [3] and with B7.1/Ig fusion protein [4] was ~8.1 nM each time.

Values taken from patent US7425447 (Biogen, dated 2008).
